The target of experiment [1] is T1, extracellular domain of human CS1 protein (human, UniProt Q9NQ25 23-226).
T1 construct: Panning target; also called CS1 mature ECD
T1 sequence: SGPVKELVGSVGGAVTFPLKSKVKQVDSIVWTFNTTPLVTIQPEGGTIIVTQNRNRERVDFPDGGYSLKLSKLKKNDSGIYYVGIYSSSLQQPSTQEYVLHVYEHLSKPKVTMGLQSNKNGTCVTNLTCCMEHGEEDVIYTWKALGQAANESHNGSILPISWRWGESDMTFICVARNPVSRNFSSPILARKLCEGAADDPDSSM
Kind of experiment: phage display panning.

The target of experiment [2] is T2, extracellular domain of human HER2 protein (human, UniProt P04626 23-652).
T2 construct: Panning target; also called HER2 mature ECD; HER2 (ERBB2, CD340)
Kind of experiment: phage display panning.

Another experiment concerns the target T3, HER2 (human, UniProt P04626 23-652).
T3 construct: also called ERBB2; CD340
In words: ELISA, format not described. More on the design: unit not given here.

Numbering of substitutions follows the chain as printed.

B1: cc12 CS1 ADBD (SEQ ID NO: 791) (designed binder)
chain: MGSWHHFKMHLAGIKLQLEALGGSEAELAEFEEWIADFEGALQDYKGKGNPEVEALRKEAAAIRDELQAYRHN
For B1, the binding result in experiment [1] was “binds”.

B2: eb03 HER2 ADBD (SEQ ID NO: 804) (designed binder)
chain: MGSWAEFRWRLHAIWLQLGALGGSEAELAAFEKEIAAFESELQAYKGKGNPEVEWLRQDAAQIKYILQAYRHN
For the molecule B2, the binding result in experiment [2] is on record as “binds”.

B3: D domain SEQ ID NO: 800 (designed binder)
chain: MGSWHEFRWRLFAIWQRLHALGGSEAELAAFEKEIAAFESELQAYKGKGNPEVEWLRLDAALIRVMLQAYRHN
For B3, the ELISA_avg in the experiment with HER2 is 10.

B4: cc01 CS1 ADBD (SEQ ID NO: 780) (designed binder)
chain: MGSWVEFEARLSAIYERLEALGGSEAELAAFEKEIAAFESELQAYKGKGNPEVEKLRRHAAGIRSNLQAYRHN
Consider B4, for which the binding result in experiment [1] is “binds”.

B5: cc02 CS1 ADBD (SEQ ID NO: 781) (designed binder)
chain: B4 chain with E8F, A9V, S12D, Y15W, K55T, R58F, S65Q, N66K
On to B5, for which, in experiment [1], the binding result is recorded as “binds”.

B6: cc08 CS1 ADBD (SEQ ID NO: 787) (designed binder)
chain: B4 chain with E8N, A9E, S12H, E16L, E19D, K55T, S65W, N66Q
As for B6, in experiment [1], the binding result is on record as “binds”.

B7: cc10 CS1 ADBD (SEQ ID NO: 789) (designed binder)
chain: B4 chain with V5M, S12E, Y15W, E16D, K55S, R58F, S65Q, N66H
As to B7, the binding result in experiment [1] was “binds”.

B8: cc09 CS1 ADBD (SEQ ID NO: 788) (designed binder)
chain: MGSWNEFKLELAFIKDWLEALGGSEAELANFEEAIAEFEAGLQGYKGKGNPEVEALRKEAAAIRDELQAYRHN
On to B8, for which, in experiment [1], the binding result is recorded as “binds”.

For the origin of these results see patent US20250026849A1 (ARCELLX, published 2025).
